We go through three molecules from article PMC6555819, “Comprehensive study of nuclear receptor DNA binding provides a revised framework for understanding receptor specificity”.

The labels stand for the following.
B1: NRC3_wobSeed45_DR1_A20C_o1 (dsDNA)
DNA 1: GCTGTCAAAGTTCAAAGGTCACGTAAGTATCCACACGCGATTGACAGCGTAGAATGAAGG
DNA 2: CCTTCATTCTACGCTGTCAATCGCGTGTGGATACTTACGTGACCTTTGAACTTTGACAGC
B2: NRC3_wobSeed42_DR1_C19T_o1 (dsDNA)
DNA 1: GCTATACAGGGTCAAAGGTCAGAGTACGAATGTCGAGCGATTGACAGCGTAGAATGAAGG
DNA 2: CCTTCATTCTACGCTGTCAATCGCTCGACATTCGTACTCTGACCTTTGACCCTGTATAGC
B3: NRC3_wobSeed27_DR1_A12T_o1 (dsDNA)
DNA 1: GCACTCGGAGGTCAAAGGTCAGAGCTACGCCAGTGAGCGATTGACAGCGTAGAATGAAGG
DNA 2: CCTTCATTCTACGCTGTCAATCGCTCACTGGCGTAGCTCTGACCTTTGACCTCCGAGTGC

Sequence of PPARa:RXRa (Q07869 whole entry, chain 1 of 2): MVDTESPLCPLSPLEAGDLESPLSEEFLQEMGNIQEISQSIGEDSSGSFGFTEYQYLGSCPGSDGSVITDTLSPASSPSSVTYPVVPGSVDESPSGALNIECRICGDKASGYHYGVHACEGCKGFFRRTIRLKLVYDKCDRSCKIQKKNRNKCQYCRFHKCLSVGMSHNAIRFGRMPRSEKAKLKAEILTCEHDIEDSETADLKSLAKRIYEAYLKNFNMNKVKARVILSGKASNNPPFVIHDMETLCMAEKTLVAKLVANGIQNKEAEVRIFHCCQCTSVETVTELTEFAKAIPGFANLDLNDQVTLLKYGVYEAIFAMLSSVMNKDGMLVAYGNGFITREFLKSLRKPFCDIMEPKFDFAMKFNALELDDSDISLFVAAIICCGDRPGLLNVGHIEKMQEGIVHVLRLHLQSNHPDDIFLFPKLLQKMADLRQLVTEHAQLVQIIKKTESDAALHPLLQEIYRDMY
Sequence of PPARa:RXRa (P19793 whole entry, chain 2 of 2): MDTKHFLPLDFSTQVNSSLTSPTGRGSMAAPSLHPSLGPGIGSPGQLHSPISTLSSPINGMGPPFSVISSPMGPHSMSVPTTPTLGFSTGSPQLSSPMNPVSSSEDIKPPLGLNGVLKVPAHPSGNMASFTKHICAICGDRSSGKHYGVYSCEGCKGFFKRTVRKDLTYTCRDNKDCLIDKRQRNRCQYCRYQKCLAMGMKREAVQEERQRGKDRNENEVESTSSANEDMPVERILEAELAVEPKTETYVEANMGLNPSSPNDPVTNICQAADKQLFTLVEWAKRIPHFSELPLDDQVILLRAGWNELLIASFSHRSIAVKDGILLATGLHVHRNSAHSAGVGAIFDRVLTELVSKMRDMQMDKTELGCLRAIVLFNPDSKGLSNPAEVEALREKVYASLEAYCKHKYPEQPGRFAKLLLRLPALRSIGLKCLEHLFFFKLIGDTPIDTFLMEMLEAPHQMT

The target in the first data set is PPARg:RXRa (Homo sapiens, UniProt P37231;P19793 full;full). The data set is described as follows: no ligand; PBM; 180 nM : 90 nM RXRa; PBS pH 7.4, 2% milk, 0.02% Triton X-100, 1 mM DTT, BSA, 0.4 mg/ml salmon testes DNA. The conditions noted are these: tags: His kept;His cleaved; copies: 1;1; label: surface-attached array probe.
Sequence of PPARg:RXRa (P37231 29-505, chain 1 of 2): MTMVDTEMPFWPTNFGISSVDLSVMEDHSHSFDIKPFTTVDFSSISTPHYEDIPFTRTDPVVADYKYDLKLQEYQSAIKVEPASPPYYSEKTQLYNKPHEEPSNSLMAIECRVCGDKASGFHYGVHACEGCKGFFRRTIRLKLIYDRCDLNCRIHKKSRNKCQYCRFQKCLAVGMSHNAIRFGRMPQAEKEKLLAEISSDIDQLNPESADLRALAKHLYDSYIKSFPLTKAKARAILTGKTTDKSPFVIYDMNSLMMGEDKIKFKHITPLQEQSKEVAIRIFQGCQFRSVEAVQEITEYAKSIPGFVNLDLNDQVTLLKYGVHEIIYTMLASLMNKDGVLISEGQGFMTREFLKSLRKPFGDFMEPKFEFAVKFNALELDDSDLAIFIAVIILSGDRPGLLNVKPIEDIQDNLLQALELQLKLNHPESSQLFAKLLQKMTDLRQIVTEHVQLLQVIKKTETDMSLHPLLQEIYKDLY
Sequence of PPARg:RXRa (P19793 whole entry, chain 2 of 2): as the sequence (P19793 whole entry, chain 2 of 2) above
As to B1, the binding signal was 11.8 PBM z-score against 500 random probes.

As to B2, the binding signal is 12.3 PBM z-score against 500 random probes.

For B3, the binding signal is 11.6 PBM z-score against 500 random probes.

For a further data set, the target named is THRa:RXRa (Homo sapiens, UniProt P10827;P19793 full;full). The data set is described as follows: no ligand; PBM; 90 nM : 90 nM RXRa; PBS pH 7.4, 2% milk, 0.02% Triton X-100, 1 mM DTT, BSA, 0.4 mg/ml salmon testes DNA. The conditions noted are these: tags: His kept;His cleaved; copies: 1;1; label: surface-attached array probe.
Sequence of THRa:RXRa (P10827 other isoform, or with tags, fused parts or gaps, chain 1 of 2): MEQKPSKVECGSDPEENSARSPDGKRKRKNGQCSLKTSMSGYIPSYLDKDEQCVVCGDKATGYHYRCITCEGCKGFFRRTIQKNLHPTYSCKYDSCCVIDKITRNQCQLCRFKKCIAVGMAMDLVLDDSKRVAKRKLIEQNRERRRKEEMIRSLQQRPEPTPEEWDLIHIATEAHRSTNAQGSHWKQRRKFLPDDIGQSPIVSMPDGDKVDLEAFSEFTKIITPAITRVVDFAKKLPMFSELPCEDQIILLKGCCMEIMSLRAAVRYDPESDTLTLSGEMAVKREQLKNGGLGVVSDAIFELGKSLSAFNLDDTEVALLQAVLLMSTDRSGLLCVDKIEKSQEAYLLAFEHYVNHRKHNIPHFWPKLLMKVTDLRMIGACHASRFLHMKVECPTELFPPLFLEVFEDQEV
Sequence of THRa:RXRa (P19793 whole entry, chain 2 of 2): as the sequence (P19793 whole entry, chain 2 of 2) above
On to B1, for which the binding signal is 5.33 PBM z-score against 500 random probes.

Take B2: the binding signal is 4.83 PBM z-score against 500 random probes.

On to B3, for which the binding signal was 4.83 PBM z-score against 500 random probes.

The next data set concerns the target FXR:RXRa (Homo sapiens, UniProt Q96RI1;P19793 full;full). Briefly: no ligand; PBM; 270 nM : 90 nM RXRa; PBS pH 7.4, 2% milk, 0.02% Triton X-100, 1 mM DTT, BSA, 0.4 mg/ml salmon testes DNA. To be noted: tags: His kept;His cleaved; copies: 1;1; label: surface-attached array probe. In outline:
(§1)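 Each nuclear receptor dimer, without ligand, was incubated for 1 h on custom Agilent 4×180K protein-binding microarrays. Binding was detected with antibodies against each partner (one per run), and scanned fluorescence was regression-normalized. The binding z-scores are referenced to random human genomic background probes.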
B1: the binding signal was 9.44 PBM z-score against 500 random probes.

Take B2: the binding signal was 8.5 PBM z-score against 500 random probes.

Turning to B3, the binding signal was 8.54 PBM z-score against 500 random probes.

The target of another data set is RARa:RXRa (Homo sapiens, UniProt P10276;P19793 full;full). The data set is described as above. The conditions noted are these: tags: His kept;His cleaved; copies: 1;1; label: surface-attached array probe. In outline: as §1
For B1, the binding signal is 9.47 PBM z-score against 500 random probes.

Take B2: the binding signal is 9.11 PBM z-score against 500 random probes.

In the case of B3, the binding signal was 9.37 PBM z-score against 500 random probes.

For the next data set, the target named is RARg:RXRa (Homo sapiens, UniProt P13631;P19793 full;full). Described as above. To be noted: tags: His kept;His cleaved; copies: 1;1; label: surface-attached array probe. In outline:
as §1
On to B1, for which the binding signal is 9.56 PBM z-score against 500 random probes.

With B2, the binding signal is 8.67 PBM z-score against 500 random probes.

Regarding B3, the binding signal is 9.09 PBM z-score against 500 random probes.

The target of the next data set is VDR:RXRa (Homo sapiens, UniProt P11473;P19793 full;full). The description is as above. To be noted: tags: His kept;His cleaved; copies: 1;1; label: surface-attached array probe. In a few lines: as §1
Sequence of VDR:RXRa (P11473 whole entry, chain 1 of 2): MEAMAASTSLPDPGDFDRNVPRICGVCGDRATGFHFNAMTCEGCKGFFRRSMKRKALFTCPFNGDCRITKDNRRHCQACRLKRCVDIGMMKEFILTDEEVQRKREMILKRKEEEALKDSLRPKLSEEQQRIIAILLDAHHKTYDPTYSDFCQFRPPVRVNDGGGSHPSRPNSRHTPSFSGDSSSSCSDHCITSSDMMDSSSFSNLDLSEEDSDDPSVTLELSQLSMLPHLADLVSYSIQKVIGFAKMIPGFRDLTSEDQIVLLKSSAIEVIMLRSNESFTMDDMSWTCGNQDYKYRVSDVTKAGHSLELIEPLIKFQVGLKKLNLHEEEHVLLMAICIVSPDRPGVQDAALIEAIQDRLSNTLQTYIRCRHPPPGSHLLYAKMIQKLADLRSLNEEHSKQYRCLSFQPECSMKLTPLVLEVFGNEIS
Sequence of VDR:RXRa (P19793 whole entry, chain 2 of 2): as the sequence (P19793 whole entry, chain 2 of 2) above
Consider B1, for which the binding signal is 7.65 PBM z-score against 500 random probes.

In the case of B2, the binding signal was 7.15 PBM z-score against 500 random probes.

In the case of B3, the binding signal is 7.02 PBM z-score against 500 random probes.

The target of a further data set is RARb:RXRa (Homo sapiens, UniProt P10826;P19793 full;full). Described as above. To be noted: tags: His kept;His cleaved; copies: 1;1; label: surface-attached array probe. In a few lines:
as §1
In the case of B1, the binding signal was 6.42 PBM z-score against 500 random probes.

Turning to B2, the binding signal was 5.62 PBM z-score against 500 random probes.

Turning to B3, the binding signal was 5.85 PBM z-score against 500 random probes.

In a further data set the target is LXRa:RXRa (Homo sapiens, UniProt Q13133;P19793 full;full). The description is as above. The conditions noted are these: tags: His kept;His cleaved; copies: 1;1; label: surface-attached array probe. In outline:
as §1
On to B1, for which the binding signal was 8.34 PBM z-score against 500 random probes.

For B2, the binding signal was 7.52 PBM z-score against 500 random probes.

For B3, the binding signal is 7.5 PBM z-score against 500 random probes.

The next data set addresses PPARa:RXRa (Homo sapiens, UniProt Q07869;P19793 full;full). Described as above. The conditions noted are these: tags: GST kept;His cleaved; copies: 1;1; label: surface-attached array probe. In outline:
as §1
Take B1: the binding signal is 7.56 PBM z-score against 500 random probes.

For B2, the binding signal is 7.46 PBM z-score against 500 random probes.

As for B3, the binding signal is 7.2 PBM z-score against 500 random probes.

The target of a further data set is PXR:RXRa (Homo sapiens, UniProt O75469;P19793 full;full). The description is as above. The conditions noted are these: tags: His kept;His cleaved; copies: 1;1; label: surface-attached array probe. In outline: as §1
On to B1, for which the binding signal is 8.16 PBM z-score against 500 random probes.

In the case of B2, the binding signal was 7.29 PBM z-score against 500 random probes.

As for B3, the binding signal is 7.52 PBM z-score against 500 random probes.

A further data set addresses LXRb:RXRa (Homo sapiens, UniProt P55055;P19793 full;full). Described as above. To be noted: tags: His kept;His cleaved; copies: 1;1; label: surface-attached array probe. In outline:
as §1
Regarding B1, the binding signal was 7.9 PBM z-score against 500 random probes.

In the case of B2, the binding signal is 7.29 PBM z-score against 500 random probes.

As for B3, the binding signal was 6.9 PBM z-score against 500 random probes.

Another data set deals with RXRa (Homo sapiens, UniProt P19793). The data set is described as follows: no ligand; PBM; 180 nM; PBS pH 7.4, 2% milk, 0.02% Triton X-100, 1 mM DTT, BSA, 0.4 mg/ml salmon testes DNA. To be noted: tags: His cleaved; chain copies: 2; label: surface-attached array probe.
Sequence of RXRa (P19793 whole entry): as the sequence (P19793 whole entry, chain 2 of 2) above
Consider B1, for which the binding signal is 11 PBM z-score against 500 random probes.

Consider B2, for which the binding signal was 10.7 PBM z-score against 500 random probes.

Consider B3, for which the binding signal was 10.9 PBM z-score against 500 random probes.
